Laboratory results taken from IntAct's records for PubMed 32296183.

Assays:
dtx3_human DTX3 = dtx3_human DTX3 (UniProt Q8N9I9)
wbp2_human WBP2 = wbp2_human WBP2 (UniProt Q969T9)
vp37b_human VPS37B = vp37b_human VPS37B (UniProt Q9H9H4)
tm174_human TMEM174 = tm174_human TMEM174 (UniProt Q8WUU8)
magd1_human MAGED1 = magd1_human MAGED1 (UniProt Q9Y5V3)
prr34_human PRR34 = prr34_human PRR34 (UniProt Q9NV39)
trib3_human TRIB3 = trib3_human TRIB3 (UniProt Q96RU7)
pihd2_human PIH1D2 = pihd2_human PIH1D2 (UniProt Q8WWB5)
pihd2_human PIH1D2, sequence (Q8WWB5 whole entry): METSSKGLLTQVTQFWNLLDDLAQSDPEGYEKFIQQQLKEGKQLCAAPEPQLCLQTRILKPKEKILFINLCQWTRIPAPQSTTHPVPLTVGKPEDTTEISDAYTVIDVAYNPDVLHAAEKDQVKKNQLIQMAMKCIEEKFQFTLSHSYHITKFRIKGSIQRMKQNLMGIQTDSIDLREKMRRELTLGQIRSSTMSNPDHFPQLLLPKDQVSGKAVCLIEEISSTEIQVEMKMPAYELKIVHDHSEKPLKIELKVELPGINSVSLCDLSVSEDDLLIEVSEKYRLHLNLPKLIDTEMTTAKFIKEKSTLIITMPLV

pdli7_human PDLIM7 = pdli7_human PDLIM7 (UniProt Q9NR12)
cytm1_human CYSTM1 = cytm1_human CYSTM1 (UniProt Q9H1C7)
hspb8_human HSPB8 = hspb8_human HSPB8 (UniProt Q9UJY1)
leng8_human LENG8 = leng8_human LENG8 (UniProt Q96PV6)
leng8_human LENG8, sequence (Q96PV6 whole entry): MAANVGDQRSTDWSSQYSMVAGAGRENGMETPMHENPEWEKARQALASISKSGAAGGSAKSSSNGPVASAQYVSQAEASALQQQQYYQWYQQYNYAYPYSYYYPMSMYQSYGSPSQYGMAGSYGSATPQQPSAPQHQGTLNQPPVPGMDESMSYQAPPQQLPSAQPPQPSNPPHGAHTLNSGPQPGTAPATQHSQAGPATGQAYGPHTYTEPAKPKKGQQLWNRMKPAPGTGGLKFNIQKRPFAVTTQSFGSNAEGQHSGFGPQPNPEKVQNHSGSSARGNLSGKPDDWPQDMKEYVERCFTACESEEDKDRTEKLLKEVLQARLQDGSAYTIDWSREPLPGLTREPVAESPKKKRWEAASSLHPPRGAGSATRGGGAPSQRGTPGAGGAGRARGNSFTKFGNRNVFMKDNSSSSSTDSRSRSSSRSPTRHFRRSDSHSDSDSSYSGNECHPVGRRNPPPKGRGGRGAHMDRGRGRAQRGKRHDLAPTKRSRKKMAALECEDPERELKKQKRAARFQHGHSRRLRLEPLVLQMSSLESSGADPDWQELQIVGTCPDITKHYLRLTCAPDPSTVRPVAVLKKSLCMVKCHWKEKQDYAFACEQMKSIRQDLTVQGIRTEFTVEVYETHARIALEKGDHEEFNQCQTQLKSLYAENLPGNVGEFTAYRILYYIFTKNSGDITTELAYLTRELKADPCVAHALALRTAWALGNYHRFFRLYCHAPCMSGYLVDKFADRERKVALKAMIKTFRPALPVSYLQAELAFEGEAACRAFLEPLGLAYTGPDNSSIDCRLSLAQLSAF

egr4_human EGR4 = egr4_human EGR4 (UniProt Q05215)
egr4_human EGR4, sequence (Q05215 whole entry): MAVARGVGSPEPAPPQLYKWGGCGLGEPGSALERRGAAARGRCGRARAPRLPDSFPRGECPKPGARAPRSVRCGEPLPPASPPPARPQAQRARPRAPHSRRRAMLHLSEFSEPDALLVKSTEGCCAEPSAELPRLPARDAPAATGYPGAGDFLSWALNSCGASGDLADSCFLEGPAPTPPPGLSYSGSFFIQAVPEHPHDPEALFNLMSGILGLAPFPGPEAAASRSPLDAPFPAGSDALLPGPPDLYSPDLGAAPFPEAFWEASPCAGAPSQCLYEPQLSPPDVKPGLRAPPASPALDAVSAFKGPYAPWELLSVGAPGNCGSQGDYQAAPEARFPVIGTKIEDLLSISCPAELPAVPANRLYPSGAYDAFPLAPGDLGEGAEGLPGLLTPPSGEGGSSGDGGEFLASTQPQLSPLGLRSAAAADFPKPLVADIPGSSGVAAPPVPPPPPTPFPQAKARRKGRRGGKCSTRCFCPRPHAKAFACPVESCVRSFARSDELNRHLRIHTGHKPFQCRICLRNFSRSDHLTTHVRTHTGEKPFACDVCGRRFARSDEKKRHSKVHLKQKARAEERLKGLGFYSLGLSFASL

ptn21_human PTPN21 = ptn21_human PTPN21 (UniProt Q16825)
dazp2_human DAZAP2 = dazp2_human DAZAP2 (UniProt Q15038)
pa2gx_human PLA2G10 = pa2gx_human PLA2G10 (UniProt O15496)
arrd3_human ARRDC3 = arrd3_human ARRDC3 (UniProt Q96B67)
ctds1_human CTDSP1 = ctds1_human CTDSP1 (UniProt Q9GZU7)
ctds1_human CTDSP1, sequence (Q9GZU7 whole entry): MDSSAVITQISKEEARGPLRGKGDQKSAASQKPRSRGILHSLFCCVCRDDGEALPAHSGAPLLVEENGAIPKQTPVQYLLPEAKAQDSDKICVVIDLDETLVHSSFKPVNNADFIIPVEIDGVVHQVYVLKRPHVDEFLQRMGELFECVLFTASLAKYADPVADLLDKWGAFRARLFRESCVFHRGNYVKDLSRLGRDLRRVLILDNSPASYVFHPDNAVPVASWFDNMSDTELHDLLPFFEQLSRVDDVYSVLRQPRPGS

mdfi_human MDFI = mdfi_human MDFI (UniProt Q99750)
mdfi_human MDFI, sequence (Q99750 whole entry): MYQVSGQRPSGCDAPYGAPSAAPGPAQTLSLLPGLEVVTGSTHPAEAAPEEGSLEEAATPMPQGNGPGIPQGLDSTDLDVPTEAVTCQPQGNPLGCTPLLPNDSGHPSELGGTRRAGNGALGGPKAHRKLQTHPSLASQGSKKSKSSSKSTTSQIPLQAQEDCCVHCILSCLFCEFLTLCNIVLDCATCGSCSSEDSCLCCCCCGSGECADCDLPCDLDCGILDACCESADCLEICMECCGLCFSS

fx4l1_human FOXD4L1 = fx4l1_human FOXD4L1 (UniProt Q9NU39)
noto_human NOTO = noto_human NOTO (UniProt A8MTQ0)
noto_human NOTO, sequence (A8MTQ0 whole entry): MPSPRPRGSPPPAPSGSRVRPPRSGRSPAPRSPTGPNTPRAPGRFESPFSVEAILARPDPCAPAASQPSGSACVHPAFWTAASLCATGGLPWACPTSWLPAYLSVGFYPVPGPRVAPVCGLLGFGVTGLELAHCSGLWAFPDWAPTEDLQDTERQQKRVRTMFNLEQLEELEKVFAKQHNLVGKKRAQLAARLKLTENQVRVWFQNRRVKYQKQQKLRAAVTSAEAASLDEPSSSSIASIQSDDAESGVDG

tri27_human TRIM27 = tri27_human TRIM27 (UniProt P14373)
hspb7_human HSPB7 = hspb7_human HSPB7 (UniProt Q9UBY9)
prdm6_human PRDM6 = prdm6_human PRDM6 (UniProt Q9NQX0)
rm38_human MRPL38 = rm38_human MRPL38 (UniProt Q96DV4)

EYA2, O00167-2, sequence (O00167 other isoform, or with tags, fused parts or gaps): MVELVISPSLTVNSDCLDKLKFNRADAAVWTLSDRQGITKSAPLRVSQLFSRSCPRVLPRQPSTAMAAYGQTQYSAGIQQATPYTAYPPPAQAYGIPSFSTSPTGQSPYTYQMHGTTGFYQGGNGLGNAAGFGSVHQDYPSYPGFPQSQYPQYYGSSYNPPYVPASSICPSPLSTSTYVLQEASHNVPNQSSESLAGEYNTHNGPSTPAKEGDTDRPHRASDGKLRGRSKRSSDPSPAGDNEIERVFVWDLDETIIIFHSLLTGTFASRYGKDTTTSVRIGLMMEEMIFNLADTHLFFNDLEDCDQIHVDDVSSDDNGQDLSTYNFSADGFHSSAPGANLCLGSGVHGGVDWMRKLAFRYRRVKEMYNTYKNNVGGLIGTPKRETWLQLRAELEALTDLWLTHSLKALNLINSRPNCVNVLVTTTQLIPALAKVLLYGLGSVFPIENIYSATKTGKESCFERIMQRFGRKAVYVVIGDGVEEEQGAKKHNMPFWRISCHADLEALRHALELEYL
SIAH1, Q8IUQ4-2, sequence (Q8IUQ4 other isoform, or with tags, fused parts or gaps): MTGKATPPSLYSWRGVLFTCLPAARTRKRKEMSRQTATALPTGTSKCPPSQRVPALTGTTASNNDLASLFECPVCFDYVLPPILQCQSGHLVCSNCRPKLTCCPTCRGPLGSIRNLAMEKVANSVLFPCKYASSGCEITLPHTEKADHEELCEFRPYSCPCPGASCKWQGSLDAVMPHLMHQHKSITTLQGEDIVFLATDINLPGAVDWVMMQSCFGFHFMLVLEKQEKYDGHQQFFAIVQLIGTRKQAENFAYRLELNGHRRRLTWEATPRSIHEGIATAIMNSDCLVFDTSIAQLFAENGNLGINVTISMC
dtx3_human DTX3, sequence (Q8N9I9 whole entry): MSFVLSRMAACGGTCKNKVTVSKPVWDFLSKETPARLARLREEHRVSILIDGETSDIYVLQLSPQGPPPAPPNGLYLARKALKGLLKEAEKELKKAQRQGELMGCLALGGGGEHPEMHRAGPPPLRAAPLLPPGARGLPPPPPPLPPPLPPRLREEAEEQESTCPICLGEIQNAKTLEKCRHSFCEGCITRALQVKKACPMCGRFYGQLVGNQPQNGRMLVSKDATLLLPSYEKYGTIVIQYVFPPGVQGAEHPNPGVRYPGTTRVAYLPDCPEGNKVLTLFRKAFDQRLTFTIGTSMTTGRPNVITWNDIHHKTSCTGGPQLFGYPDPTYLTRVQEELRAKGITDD
prr34_human PRR34, sequence (Q9NV39 whole entry): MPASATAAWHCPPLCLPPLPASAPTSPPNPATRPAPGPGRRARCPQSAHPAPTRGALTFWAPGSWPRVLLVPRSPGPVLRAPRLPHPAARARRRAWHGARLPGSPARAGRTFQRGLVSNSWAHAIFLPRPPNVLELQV
NR1H3, Q13133-3, sequence (Q13133 46-447): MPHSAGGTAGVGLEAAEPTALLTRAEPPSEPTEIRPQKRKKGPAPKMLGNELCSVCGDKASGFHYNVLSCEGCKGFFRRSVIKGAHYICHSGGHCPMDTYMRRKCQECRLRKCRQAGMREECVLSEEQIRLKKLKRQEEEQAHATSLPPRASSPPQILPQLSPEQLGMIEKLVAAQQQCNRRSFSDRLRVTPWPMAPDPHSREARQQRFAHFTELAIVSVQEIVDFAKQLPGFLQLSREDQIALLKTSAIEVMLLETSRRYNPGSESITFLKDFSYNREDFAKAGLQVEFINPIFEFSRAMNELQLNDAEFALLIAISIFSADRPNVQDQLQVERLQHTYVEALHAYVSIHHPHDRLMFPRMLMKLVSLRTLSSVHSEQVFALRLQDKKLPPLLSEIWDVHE
trib3_human TRIB3, sequence (Q96RU7 whole entry): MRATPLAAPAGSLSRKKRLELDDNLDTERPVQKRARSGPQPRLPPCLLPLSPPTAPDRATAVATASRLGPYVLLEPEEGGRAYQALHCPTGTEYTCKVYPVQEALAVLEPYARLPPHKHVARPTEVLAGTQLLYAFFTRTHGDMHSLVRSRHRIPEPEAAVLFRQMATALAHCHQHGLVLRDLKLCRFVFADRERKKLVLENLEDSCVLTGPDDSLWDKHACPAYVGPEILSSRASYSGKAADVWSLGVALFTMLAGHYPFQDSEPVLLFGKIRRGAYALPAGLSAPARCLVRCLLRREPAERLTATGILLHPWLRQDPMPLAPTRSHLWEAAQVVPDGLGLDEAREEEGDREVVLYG
vp37b_human VPS37B, sequence (Q9H9H4 whole entry): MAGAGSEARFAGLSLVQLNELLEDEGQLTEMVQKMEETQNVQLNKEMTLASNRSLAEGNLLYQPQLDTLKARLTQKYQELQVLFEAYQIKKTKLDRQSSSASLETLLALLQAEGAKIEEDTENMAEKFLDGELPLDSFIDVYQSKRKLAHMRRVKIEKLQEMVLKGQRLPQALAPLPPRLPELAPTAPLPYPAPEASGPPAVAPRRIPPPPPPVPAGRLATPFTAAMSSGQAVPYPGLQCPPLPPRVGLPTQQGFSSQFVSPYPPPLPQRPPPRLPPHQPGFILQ

Substance | effect of a mutation on the interaction (NR1H3, Q13133-3) | effect of a mutation on the interaction (dtx3_human DTX3) | effect of a mutation on the interaction (wbp2_human WBP2) | effect of a mutation on the interaction (EYA2, O00167-2) | effect of a mutation on the interaction (vp37b_human VPS37B) | effect of a mutation on the interaction (tm174_human TMEM174) | effect of a mutation on the interaction (magd1_human MAGED1) | effect of a mutation on the interaction (prr34_human PRR34) | effect of a mutation on the interaction (trib3_human TRIB3) | effect of a mutation on the interaction (pihd2_human PIH1D2) | effect of a mutation on the interaction (GLIS3, Q8NEA6-2) | effect of a mutation on the interaction (pdli7_human PDLIM7) | effect of a mutation on the interaction (hspb8_human HSPB8) | effect of a mutation on the interaction (leng8_human LENG8) | effect of a mutation on the interaction (egr4_human EGR4) | effect of a mutation on the interaction (ptn21_human PTPN21) | effect of a mutation on the interaction (dazp2_human DAZAP2) | effect of a mutation on the interaction (pa2gx_human PLA2G10) | effect of a mutation on the interaction (SIAH1, Q8IUQ4-2) | effect of a mutation on the interaction (arrd3_human ARRDC3) | further results
BAG family molecular chaperone regulator 3 (Homo sapiens), O95817 R218W | with no effect | with no effect | with no effect | with no effect | with no effect | with no effect | with no effect | with no effect | with no effect | with no effect | with no effect | with no effect | with no effect | with no effect | with no effect | with no effect | with no effect | with no effect | with no effect | with no effect | effect of a mutation on the interaction (cytm1_human CYSTM1): with no effect; effect of a mutation on the interaction (ctds1_human CTDSP1): with no effect; effect of a mutation on the interaction (mdfi_human MDFI): with no effect; effect of a mutation on the interaction (fx4l1_human FOXD4L1): with no effect; effect of a mutation on the interaction (noto_human NOTO): with no effect; effect of a mutation on the interaction (tri27_human TRIM27): with no effect; effect of a mutation on the interaction (hspb7_human HSPB7): with no effect
BAG family molecular chaperone regulator 3 (Homo sapiens), O95817 R258W | with no effect | with no effect | with no effect | with no effect | with no effect | with no effect | with no effect | with no effect | with no effect | with no effect | with no effect | with no effect | with no effect | with no effect | with no effect | with no effect | with no effect | with no effect | with no effect | with no effect | effect of a mutation on the interaction (RUNX1, Q01196-8): with no effect; effect of a mutation on the interaction (prdm6_human PRDM6): with no effect; effect of a mutation on the interaction (ctds1_human CTDSP1): with no effect; effect of a mutation on the interaction (mdfi_human MDFI): with no effect; effect of a mutation on the interaction (rm38_human MRPL38): disrupting interaction strength; effect of a mutation on the interaction (fx4l1_human FOXD4L1): with no effect; effect of a mutation on the interaction (noto_human NOTO): with no effect; effect of a mutation on the interaction (tri27_human TRIM27): with no effect; effect of a mutation on the interaction (hspb7_human HSPB7): with no effect
